Data: patent publication CN110872347A (TIANJIN TIMMUNE BIOTECH INC, dated 2020)

Target: HLA-A2/…抗原复合物 (human)
Test: SPR, Biacore T200, antigen on SA chip, Fc fusion as analyte 1-20 nM, Bivalent Analyte model

B1: 融合蛋白M3-D9-Fc (Fc fusion, not shown: a dimerising Fc or GST)
chain: VQLVETGGGLVQPGGSLRLSCAASGFTFSDYAIQWVRQAPGKGLGRVSYINSGGDTTYYADSVKGRFSIARDNAKNTVYLQMNSLKPEDTAVYYCYAGGYWGQGTQVTVSS
Kd: 25 nM
koff: 0.0171 s⁻¹
kon: 678000 M⁻¹ s⁻¹

B2: 融合蛋白M3-E7-Fc (Fc fusion, not shown: a dimerising Fc or GST)
chain: VQLVASGGGLVPPGGSLRLSCAASGRTFNVDAMAWFRQTRGKEREFVAAISRSGGSTYYADSVKGRFSISKDNAKNTMYLQMNSLKPEDTAIYYCAAAIYWRGSYYTEGNYDYWGQRTQVTVSS
Kd: 9 nM
koff: 0.0309 s⁻¹
kon: 3.43e+06 M⁻¹ s⁻¹
